Measured values as given in US6124449, “High affinity TGFβ nucleic acid ligands and inhibitors” (NeXstar Pharmaceuticals, Inc.).
Changes are numbered by the printed parent chain.

Legend:
[1] = target: T1, TGF-beta1 (hTGF-beta1) (Homo sapiens, UniProt P01137 P01137:279-390); test: filter; biphasic; Kd1 3.7±1.5 nM; conditions: tags: R&D Systems; biotinylated form (NFTG0) used for BIAcore; chain copies: 2
[2] = target: T1, TGF-beta1 (hTGF-beta1); test: filter; biphasic; Kd1 14.0±6.4 nM; conditions: tags: R&D Systems; biotinylated form (NFTG0) used for BIAcore; chain copies: 2
[3] = target: T1, TGF-beta1 (hTGF-beta1); test: filter; monophasic; conditions: tags: R&D Systems; biotinylated form (NFTG0) used for BIAcore; chain copies: 2
[4] = target: T1, TGF-beta1 (hTGF-beta1); test: cell_activity; MLEC assay; conditions: tags: R&D Systems, biotinylated form (NFTG0) used for BIAcore, chain copies: 2
Experimental: Cells were plated at 10^5/mL in 96-well plates in MEM, 10 mM HEPES and 0.2% FBS. Following 4 hours of incubation at 37° C., when cells appeared to attach to the well surface, TGFβ1 was added at 2 pM with or without TGFβ1 ligands that ranged from 0.1 nM to 1 µM. In a second assay performed in order to determine cross-species reactivity, rather than using hTGFβ, a conditioned serum-free medium (CM) was used. CM was conditioned by culturing it in murine 3T3 fibroblast for 48 hours. Before use, this conditioned medium was heat treated at 80° C. for 10 minutes to activate the 3T3 cell derived TGFβ and then it was diluted to 50% and supplemented with 0.2% murine serum. In each assay, hTGFβ1 (or CM) was diluted appropriately in MEM and FBS (0.2% or murine serum) and the ligands were diluted in MEM. TGFβ1 (or CM) and ligand dilutions at 10× the final concentration were premixed at equal volumes and then were added to the cells. Following addition of the TGFβ1 (or CM)-ligand mixture, the cells were incubated for 16–18 hours prior to addition of ^3H-thymidine at 0.25 µCi per well and continued incubation for 7–8 additional hours. After incubation, the cells were washed and harvested with SKATRON filtering units and ^3H-thymidine incorporation in cellular DNA was quantitated by scintillation counting in Ecoscint. Data were plotted and analyzed as described in Park et al. (1990) J. Exp. Med. 171:1073) and Dower et al. (1984) J. Immunol.

[5] = target: T1, TGF-beta1 (hTGF-beta1); test: filter; biphasic; Kd1 3.7±0.6 nM; conditions: tags: R&D Systems; biotinylated form (NFTG0) used for BIAcore; chain copies: 2
[6] = target: T1, TGF-beta1 (hTGF-beta1); test: filter; monophasic, plateau 8%; conditions: tags: R&D Systems; biotinylated form (NFTG0) used for BIAcore; chain copies: 2
[7] = target: T1, TGF-beta1 (hTGF-beta1); test: filter; biphasic; Kd1 58.2 nM; P2 1.2%; conditions: tags: R&D Systems; biotinylated form (NFTG0) used for BIAcore; chain copies: 2
[8] = target: T1, TGF-beta1 (hTGF-beta1); test: filter; biphasic; Kd1 56.6 nM; P2 2.4%; conditions: tags: R&D Systems; biotinylated form (NFTG0) used for BIAcore; chain copies: 2
[9] = target: T1, TGF-beta1 (hTGF-beta1); test: filter; biphasic; Kd1 4.05±1.5 nM; conditions: tags: R&D Systems; biotinylated form (NFTG0) used for BIAcore; chain copies: 2
[10] = target: T1, TGF-beta1 (hTGF-beta1); test: filter; biphasic; Kd1 2.82±1.7 nM; conditions: tags: R&D Systems; biotinylated form (NFTG0) used for BIAcore; chain copies: 2
[11] = target: T1, TGF-beta1 (hTGF-beta1); test: filter; biphasic; Kd1 4.2±2.2 nM; conditions: tags: R&D Systems; biotinylated form (NFTG0) used for BIAcore; chain copies: 2
[12] = target: T1, TGF-beta1 (hTGF-beta1); test: filter; monophasic, plateau about 10%; Table 3 and Table 4 sequences differ slightly; conditions: tags: R&D Systems; biotinylated form (NFTG0) used for BIAcore; chain copies: 2
[13] = target: T1, TGF-beta1 (hTGF-beta1); test: filter; biphasic; Kd1 8.5±1.8 nM; conditions: tags: R&D Systems; biotinylated form (NFTG0) used for BIAcore; chain copies: 2
[14] = target: T1, TGF-beta1 (hTGF-beta1); test: filter; biphasic; Kd1 5.6±2.0 nM; conditions: tags: R&D Systems; biotinylated form (NFTG0) used for BIAcore; chain copies: 2
[15] = target: T1, TGF-beta1 (hTGF-beta1); test: filter; biphasic; Kd1 13.5±4.2 nM; conditions: tags: R&D Systems; biotinylated form (NFTG0) used for BIAcore; chain copies: 2
[16] = target: T1, TGF-beta1 (hTGF-beta1); test: filter; biphasic; Kd1 4.4±1.6 nM; conditions: tags: R&D Systems; biotinylated form (NFTG0) used for BIAcore; chain copies: 2

T1 sequence (P01137 279-390, one chain of several): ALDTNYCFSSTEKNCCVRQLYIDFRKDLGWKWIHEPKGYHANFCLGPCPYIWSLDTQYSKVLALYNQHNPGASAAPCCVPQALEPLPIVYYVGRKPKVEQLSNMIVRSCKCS

B1: 40-77 (ssRNA)
RNA: GGGAGGACGAUGCGGUUAUGGGCGUCAACACCGCUAUUACAACUUUCGCCCCCCAGACGACUCGCCCGA
modifications: 2'-F C and U
- Kd [1]: 0.00173 nM

B2: 40-32 (ssRNA)
RNA: GGGAGGACGAUGCGGUUAUGGGCGUCAACACCGCUAUUACAACUUUCGCCUCCAGACGACUCGCCCGA
modifications: 2'-F C and U
- Kd [2]: 0.005 nM

B3: 30-34 (ssRNA)
RNA: GGGAGGACGAUGCGGUGUCUAUAGCCUUGAUUACAUCAUCUGCCUCAGACGACUCGCCCGA
modifications: 2'-F C and U
- Kd [3]: 9.5 nM

B4: 40-55 (ssRNA)
RNA: GGGAGGACGAUGCGGUUAGGGGCGUCAACACCGCUAUUCAACCUUCGCUUCCCCAGACGACUCGCCCGA
modifications: 2'-F C and U
- Ki [4]: 2.9 nM

B5: 30-15 (ssRNA)
RNA: GGGAGGACGAUGCGGUUGACCGUUAAGACGGCAUGAUGUGGUCCGCAGACGACUCGCCCGA
modifications: 2'-F C and U
- Kd [3]: 55.3 nM

B6: 30-22 (ssRNA)
RNA: B5 RNA with G18A, U24A, G40U, G41U
modifications: 2'-F C and U
- Kd [3]: 2.47 nM

B7: 40-06 (ssRNA)
RNA: GGGAGGACGAUGCGGUUAGGGGCGUCAACACCGCUAUCAUAAUUUUCGCCUUCCCCAGACGACUCGCCCGA
modifications: 2'-F C and U
- Kd [5]: 0.0016 nM

B8: 40-60 (ssRNA)
RNA: B7 RNA with G19U, C38U, U40C, A42G, U52C
modifications: 2'-F C and U
- Ki ([4]; label: 5'-biotin for BIAcore specificity, proposed double pseudoknot): 0.8 nM

B9: 40-56 (ssRNA)
RNA: GGGAGGACGAUGCGGUUAGGGCGUCAACACCGCUAUUACAACUUUCGCCUCCCCAGACGACUCGCCCGA
modifications: 2'-F C and U
- Ki [4]: 7.4 nM

B10: 20-04 (ssRNA)
RNA: GGGAGGACGAUGCGGUGUCUUUAGCUUAGGUGAUUCCUUCUGCCGCAGACGACUCGCCCGA
modifications: 2'-F C and U
- Kd [6]: 0.2 nM

B11: 30-03 (ssRNA)
RNA: B10 RNA with U26C, U27C
modifications: 2'-F C and U
- Kd [7]: 0.262 nM

B12: 30-06 (ssRNA)
RNA: B10 RNA with U18C, U31C, G32U, A33U, U35G
modifications: 2'-F C and U
- Kd [8]: 0.0741 nM

B13: 30-10 (ssRNA)
RNA: B10 RNA with U26C
modifications: 2'-F C and U
- Kd [9]: 0.0755 nM

B14: 30-43 (ssRNA)
RNA: B10 RNA with U26C
modifications: 2'-F C and U
- Kd [3]: 50.5 nM

B15: 30-37 (ssRNA)
RNA: B10 RNA with A23G, U26C
modifications: 2'-F C and U
- Kd [3]: 2.65 nM

B16: 30-12,24,21,40,41 (ssRNA)
RNA: GGGAGGACGAUGCGGUGUCUAUAGCCUGAUUUUUAAUCUCUGCCGCAGACGACUCGCCCGA
modifications: 2'-F C and U
- Kd [10]: 0.0608 nM

B17: 40-36 (ssRNA)
RNA: GGGAGGACGAUGCGGGUCAAGGUUACGCCGUCGGACCCUACUGCCCCCAGACGACUCGCCCGA
modifications: 2'-F C and U
- Kd [3]: 41.7 nM

B18: 40-13 (ssRNA)
RNA: GGGAGGACGAUGCGGAGCAAGGUUACGAGGUCGGACCCUGCUGCCAACAUCCUCCCCAGACGACUCGCCCGA
modifications: 2'-F C and U
- Kd [3]: 15.4 nM

B19: 40-33 (ssRNA)
RNA: B18 RNA with A28C, G29C
modifications: 2'-F C and U
- Kd [3]: 26.6 nM

B20: 40-44 (ssRNA)
RNA: B18 RNA with A16U, A28C, G29C
modifications: 2'-F C and U
- Kd [3]: 11.1 nM

B21: 40-40 (ssRNA)
RNA: B18 RNA with A16C, G17C, A28C, G29C, G40A, A49U
modifications: 2'-F C and U
- Kd [3]: 18 nM

B22: 40-20 (ssRNA)
RNA: B18 RNA with A16U, G17A, A28C, G29C
modifications: 2'-F C and U
- Kd [3]: 11.2 nM

B23: 40-38 (ssRNA)
RNA: GGGAGGACGAUGCGGAGAUAAUUAUCAGCGGUGGACGGGGUGCCGGUACUGCCGCCAGACGACUCGCCCGA
modifications: 2'-F C and U
- Kd [3]: 21.8 nM

B24: 40-19 (ssRNA)
RNA: GGGAGGACGAUGCGGUUAGCGCGAGUUCAACACCGCAUGUGAUUCUUUCGCCUCCCAGACGACUCGCCCGA
modifications: 2'-F C and U
- Kd [11]: 0.0037 nM
- Ki [4]: 28 nM

B25: 20-05 (ssRNA)
RNA: GGGAGGACGAUGCGGUGUCUCUACCUUAGGUUGAUUCCUUCUACCGCAGACGACUCGCCCGA
modifications: 2'-F C and U
- Kd [12]: 0.11 nM

B26: 30-08 (ssRNA)
RNA: GGGAGGACGAUGCGGCGGAAUUUUUGUUGAGCCGUAUGCCGCCAGACGACUCGCCCGA
modifications: 2'-F C and U
- Kd [3]: 10.2 nM

B27: 40-14 (ssRNA)
RNA: GGGAGGACGAUGCGGCAUUAUGGCGUCAACAUGCCGGUUUUCGAUUCUCAUUGUCCAGACGACUCGCCCGA
modifications: 2'-F C and U
- Ki [4]: 3.9 nM

B28: 40-54 (ssRNA)
RNA: GGGAGGACGAUGCGGUUAGGGGCGUCAACACCGCUAUCAUAACUUUCGCUUCCCCAGACGACUCGCCCGA
modifications: 2'-F C and U
- Kd [13]: 0.00675 nM

B29: 40-64 (ssRNA)
RNA: B28 RNA with C38U, U40C, C43U, U44C, C49U, U50C, C52U
modifications: 2'-F C and U
- Kd [14]: 0.0031 nM

B30: 40-16 (ssRNA)
RNA: B28 RNA with C38U, U40C, A42U, U50C
modifications: 2'-F C and U
- Ki [4]: 0.6 nM

B31: 40-61,76 (ssRNA)
RNA: B28 RNA with C38U, U40C, C43U, U44C, C52U
modifications: 2'-F C and U
- Kd [15]: 0.001 nM

B32: 40-58 (ssRNA)
RNA: B28 RNA with G19U, C38U, U40C, U50C
modifications: 2'-F C and U
- Kd [16]: 0.0053 nM
- Ki [4]: 0.9 nM

B33: 40-08 (ssRNA)
RNA: GGGAGGACGAUGCGGCGCAAGGUUACGCCGUCGGACCCUGCUGCCAACAUCCUCCCAGACGACUCGCCCGA
modifications: 2'-F C and U
- Kd [3]: 15.4 nM

B34: 40-29 (ssRNA)
RNA: GGGAGGACGAUGCGGGACCCUUUUCUGCGAUUCAACUCGUACGUCUUCUCACGUGCAGACGACUCGCCCGA
modifications: 2'-F C and U
- Kd [3]: 10.9 nM

B35: 40-12 (ssRNA)
RNA: B34 RNA with U23G, C42G, C45U
modifications: 2'-F C and U
- Ki [4]: 6.88 nM
